The results in this text go back to US20260116966A1 (KEYMED BIOSCIENCES CHENGDU, published 2026).

The labels stand for the following.
B1: GPRC5D × BCMA × CD3 triTCE-v1 trispecific antibody (other)
light 1: DIVLTQSPASLAVSPGQRATITCRASKSVSTSGYSYMHWYQKKPGQPPKLLIYLASNLESGVPARFSGSGSGTDFTLTINPVEAEDTANYYCQHSRELPWTFGQGTKVEIKRTVAAPSVFIFPPSDEQLKSGTASVVCLLNNFYPREAKVQWKVDNALQSGNSQESVTEQDSKDSTYSLSSTLTLSKADYEKHKVYACEVTHQGLSSPVTKSFNRGEC
heavy 1: DIQMTQSPSSLSASVGDRVTITCQASQNVGTNVAWYQQKPGQAPKALIYSASYLNSGVPSRFSGSGSGTDFTFTISSLQPEDIATYFCQQYNSYLLTFGCGTKVEIKGGGGSGGGGSGGGGSQVQLVQSGAEVKKPGSSVKVSCKASGYSFTGYTMNWVRQAPGQCLEWMGLINPYNGGTRYNQKFQGRVTITADESTSTAYMELSSLRSEDTAVYYCARWALRYGMDYWGQGTLVTVSSGGGGSGGGGSGGGGSQVQLVQSGSELKKPGASVKVSCKASGYIFTNFGMNWVREAPGQGLEWMGWINTYTGEQIYADGFTGRFVFSLDTSVSTAYLQISSLKAEDTAVYFCARGEIYYGYDVGFVYWGQGTLVTVSSASTKGPSVFPLAPCSRSTSESTAALGCLVKDYFPEPVTVSWNSGALTSGVHTFPAVLQSSGLYSLSSVVTVPSSSLGTKTYTCNVDHKPSNTKVDKRVESKYGPPCPPCPAPEFEGGPSVFLFPPKPKDTLMISRTPEVTCVVVDVSQEDPEVQFNWYVDGVEVHNAKTKPREEQFNSTYRVVSVLTVLHQDWLNGKEYKCKVSNKGLASSIEKTISKAKGQPREPQVCTLPPSQEEMTKNQVSLSCAVKGFYPSDIAVEWESNGQPENNYKTTPPVLDSDGSFFLVSKLTVDKSRWQEGNVFSCSVMHEALHNHYTQKSLSLSLGK
light 2: QAVVTQEPSLTVSPGGTVTLTCRSSTGAVTTSNYANWVQEKPGQAPRGLIGGTNKRAPWTPARFSGSLLGGKAALTITGAQAEDEAEYYCVLWYSNLWVFGGGTKLTVLGQPKAAPSVTLFPPSSEELQANKATLVCLISDFYPGAVTVAWKADSSPVKAGVETTTPSKQSNNKYAASSYLSLTPEQWKSHRSYSCQVTHEGSTVEKTVAPTECS
heavy 2: EVQLVESGGGLVQPGGSLRLSCAASGFTFNTYAMNWVRKAPGKGLEWVGRIRSKYNNYATYYADSVKDRFTISRDDSKNSLYLQMNSLKTEDTAVYYCVRHGNFGNSYVSWFAYWGQGTLVTVSSASTKGPSVFPLAPCSRSTSESTAALGCLVKDYFPEPVTVSWNSGALTSGVHTFPAVLQSSGLYSLSSVVTVPSSSLGTKTYTCNVDHKPSNTKVDKRVESKYGPPCPPCPAPEFEGGPSVFLFPPKPKDTLMISRTPEVTCVVVDVSQEDPEVQFNWYVDGVEVHNAKTKPREEQFNSTYRVVSVLTVLHQDWLNGKEYKCKVSNKGLASSIEKTISKAKGQPREPQVYTLPPCQEEMTKNQVSLWCLVKGFYPSDIAVEWESNGQPENNYKTTPPVLDSDGSFFLYSKLTVDKSRWQEGNVFSCSVMHEALHNHYTQKSLSLSLGK
notes: Trispecific antibody: GPRC5D scFv fused to the N-terminus of the heavy chain of the BCMA arm
B2: GPRC5D × BCMA × CD3 triTCE-v2 trispecific antibody (other)
light 1: B1 light 1
heavy 1: QVQLVQSGAEVKKPGSSVKVSCKASGYSFTGYTMNWVRQAPGQCLEWMGLINPYNGGTRYNQKFQGRVTITADESTSTAYMELSSLRSEDTAVYYCARWALRYGMDYWGQGTLVTVSSGGGGSGGGGSGGGGSDIQMTQSPSSLSASVGDRVTITCQASQNVGTNVAWYQQKPGQAPKALIYSASYLNSGVPSRFSGSGSGTDFTFTISSLQPEDIATYFCQQYNSYLLTFGCGTKVEIKGGGGSGGGGSGGGGSQVQLVQSGSELKKPGASVKVSCKASGYIFTNFGMNWVREAPGQGLEWMGWINTYTGEQIYADGFTGRFVFSLDTSVSTAYLQISSLKAEDTAVYFCARGEIYYGYDVGFVYWGQGTLVTVSSASTKGPSVFPLAPCSRSTSESTAALGCLVKDYFPEPVTVSWNSGALTSGVHTFPAVLQSSGLYSLSSVVTVPSSSLGTKTYTCNVDHKPSNTKVDKRVESKYGPPCPPCPAPEFEGGPSVFLFPPKPKDTLMISRTPEVTCVVVDVSQEDPEVQFNWYVDGVEVHNAKTKPREEQFNSTYRVVSVLTVLHQDWLNGKEYKCKVSNKGLASSIEKTISKAKGQPREPQVCTLPPSQEEMTKNQVSLSCAVKGFYPSDIAVEWESNGQPENNYKTTPPVLDSDGSFFLVSKLTVDKSRWQEGNVFSCSVMHEALHNHYTQKSLSLSLGK
light 2: B1 light 2
heavy 2: B1 heavy 2
notes: as for B1
B3: GPRC5D × BCMA × CD3 triTCE-v3 trispecific antibody (other)
light 1: B1 light 2
heavy 1: DIQMTQSPSSLSASVGDRVTITCQASQNVGTNVAWYQQKPGQAPKALIYSASYLNSGVPSRFSGSGSGTDFTFTISSLQPEDIATYFCQQYNSYLLTFGCGTKVEIKGGGGSGGGGSGGGGSQVQLVQSGAEVKKPGSSVKVSCKASGYSFTGYTMNWVRQAPGQCLEWMGLINPYNGGTRYNQKFQGRVTITADESTSTAYMELSSLRSEDTAVYYCARWALRYGMDYWGQGTLVTVSSGGGGSGGGGSGGGGSEVQLVESGGGLVQPGGSLRLSCAASGFTFNTYAMNWVRKAPGKGLEWVGRIRSKYNNYATYYADSVKDRFTISRDDSKNSLYLQMNSLKTEDTAVYYCVRHGNFGNSYVSWFAYWGQGTLVTVSSASTKGPSVFPLAPCSRSTSESTAALGCLVKDYFPEPVTVSWNSGALTSGVHTFPAVLQSSGLYSLSSVVTVPSSSLGTKTYTCNVDHKPSNTKVDKRVESKYGPPCPPCPAPEFEGGPSVFLFPPKPKDTLMISRTPEVTCVVVDVSQEDPEVQFNWYVDGVEVHNAKTKPREEQFNSTYRVVSVLTVLHQDWLNGKEYKCKVSNKGLASSIEKTISKAKGQPREPQVYTLPPCQEEMTKNQVSLWCLVKGFYPSDIAVEWESNGQPENNYKTTPPVLDSDGSFFLYSKLTVDKSRWQEGNVFSCSVMHEALHNHYTQKSLSLSLGK
light 2: B1 light 1
heavy 2: QVQLVQSGSELKKPGASVKVSCKASGYIFTNFGMNWVREAPGQGLEWMGWINTYTGEQIYADGFTGRFVFSLDTSVSTAYLQISSLKAEDTAVYFCARGEIYYGYDVGFVYWGQGTLVTVSS
notes: Trispecific antibody: GPRC5D scFv fused to the N-terminus of the heavy chain of the CD3 arm
B4: GPRC5D × BCMA × CD3 triTCE-v4 trispecific antibody (other)
light 1: B1 light 2
heavy 1: QVQLVQSGAEVKKPGSSVKVSCKASGYSFTGYTMNWVRQAPGQCLEWMGLINPYNGGTRYNQKFQGRVTITADESTSTAYMELSSLRSEDTAVYYCARWALRYGMDYWGQGTLVTVSSGGGGSGGGGSGGGGSDIQMTQSPSSLSASVGDRVTITCQASQNVGTNVAWYQQKPGQAPKALIYSASYLNSGVPSRFSGSGSGTDFTFTISSLQPEDIATYFCQQYNSYLLTFGCGTKVEIKGGGGSGGGGSGGGGSEVQLVESGGGLVQPGGSLRLSCAASGFTFNTYAMNWVRKAPGKGLEWVGRIRSKYNNYATYYADSVKDRFTISRDDSKNSLYLQMNSLKTEDTAVYYCVRHGNFGNSYVSWFAYWGQGTLVTVSSASTKGPSVFPLAPCSRSTSESTAALGCLVKDYFPEPVTVSWNSGALTSGVHTFPAVLQSSGLYSLSSVVTVPSSSLGTKTYTCNVDHKPSNTKVDKRVESKYGPPCPPCPAPEFEGGPSVFLFPPKPKDTLMISRTPEVTCVVVDVSQEDPEVQFNWYVDGVEVHNAKTKPREEQFNSTYRVVSVLTVLHQDWLNGKEYKCKVSNKGLASSIEKTISKAKGQPREPQVYTLPPCQEEMTKNQVSLWCLVKGFYPSDIAVEWESNGQPENNYKTTPPVLDSDGSFFLYSKLTVDKSRWQEGNVFSCSVMHEALHNHYTQKSLSLSLGK
light 2: B1 light 1
heavy 2: B3 heavy 2
notes: as for B3

T2 sequence (Q9NZD1 whole entry): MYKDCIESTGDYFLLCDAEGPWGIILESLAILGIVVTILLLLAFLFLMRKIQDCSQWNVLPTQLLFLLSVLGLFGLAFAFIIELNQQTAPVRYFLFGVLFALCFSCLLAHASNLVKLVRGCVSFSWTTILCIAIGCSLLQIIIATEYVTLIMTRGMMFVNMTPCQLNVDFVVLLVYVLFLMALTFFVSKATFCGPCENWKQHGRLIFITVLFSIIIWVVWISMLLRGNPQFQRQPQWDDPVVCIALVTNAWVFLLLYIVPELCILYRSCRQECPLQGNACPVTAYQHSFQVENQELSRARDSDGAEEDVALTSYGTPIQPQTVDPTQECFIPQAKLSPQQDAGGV
T1 sequence (P07766 23-207): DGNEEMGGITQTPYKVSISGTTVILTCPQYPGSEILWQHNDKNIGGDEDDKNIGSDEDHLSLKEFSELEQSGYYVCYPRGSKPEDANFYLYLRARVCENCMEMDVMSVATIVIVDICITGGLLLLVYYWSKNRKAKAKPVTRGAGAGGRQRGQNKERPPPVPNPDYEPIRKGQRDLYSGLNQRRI

The first experiment has as its target T1, CD3 receptor on the surface of Jurkat cells (human, UniProt P07766 23-207).
T1 construct: whole, on cells; Whole CD3/TCR complex on Jurkat cells; also called Jurkat T
Put plainly: flow cytometry on Jurkat cells. In general terms: In flow cytometry, cells or beads pass a laser one at a time.
Method: Jurkat cells in logarithmic growth phase were added with 200 μg/mL mouse IgG, and allowed to stand in an ice bath for 30 min. The cells were adjusted with 4% calf serum to 5×10⁵ cells/mL. 100 μL per well was added to a 96-well U-shaped plate, and centrifuged at 300 g. The supernatant was removed. 100 μL per well of serially diluted antibody was added, and incubated at 4° C. for 60 min. The secondary antibody 50 μL/well of Alexa Fluro647 labeled goat anti-human IgG Fc (1:300 dilution) was added, and incubated on ice for 20 min. After washing once, 50 μL/well of PI was added, incubated for 5 min, and detected by flow cytometry.
In the case of B1, the binding result was “binds”.
Still for that read-out and setting: next, B2: “binds”.

The next experiment concerns the target T2, human GPRC5D (human, UniProt Q9NZD1 1-345).
T2 construct: Full length, on stably transfected cells (HEK293-hGPRC5D, CHO-hGPRC5D); Also used here for the endogenous GPRC5D of the GPRC5D+ myeloma lines MM.1R, MM.1S and NCI-H929; also called hGPRC5D; G-protein-coupled receptor family C group 5 member D
In words: flow cytometry, HEK293-hGPRC5D cells.
Method: Cell suspensions of HEK293-hGPRC5D and HEK293-hBCMA stably transfected cells in logarithmic growth phase were adjusted to 5×10⁵ cells/ml. Then, 100 μl/well of the cell suspension was added to a 96-well U-shaped plate, and centrifuged at 300 g for 5 min. The supernatant was discarded. 100 μL per well of serially diluted antibody was added, and incubated at 4° C. for 60 min. The secondary antibody 50 μL/well of Alexa Fluro647 labeled goat anti-human IgG Fc (1:300 dilution) was added, and incubated on ice for 20 min. After washing once, 50 μL/well of PI solution was added, incubated for 5 min, and detected by flow cytometry.
The EC50 is the concentration needed to bring the measured effect to its halfway point. Consider B1, for which the EC50 amounted to 5.7 nM.
Same read-out and setting: the same measure for B2: 7.9 nM; for B3: 2.7 nM.
Still for that read-out and setting: the same measure for B4: 9.9 nM.

The target of a further experiment is T3, biotinylated CD3 recombinant antigen (CD3εγ) (Homo sapiens (Human), UniProt P07766 23-126; P09693 23-116, Biotinylated; site and chemistry not stated. The letters do not carry the biotin.).
T3 construct: also called CD3e antigen; copies: 1 + 1
T3 sequence (P07766 23-126 limits assumed, chain 1 of 2): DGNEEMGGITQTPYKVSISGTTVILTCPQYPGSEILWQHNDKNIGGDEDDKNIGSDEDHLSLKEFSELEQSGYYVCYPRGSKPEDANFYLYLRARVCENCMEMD
T3 sequence (P09693 23-116 limits assumed, chain 2 of 2): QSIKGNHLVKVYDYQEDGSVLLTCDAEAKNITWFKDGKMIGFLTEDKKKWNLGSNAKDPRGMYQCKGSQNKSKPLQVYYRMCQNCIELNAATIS
Put plainly: BLI, biotinylated antigen on SA probe, antibody as analyte.
Broadly, the Kd is the concentration at which binding is half-saturated. In the case of B3, the Kd was 58.2 nM.
Same read-out and setting: the same measure for B4: 64.4 nM.

Another experiment deals with T2, human GPRC5D. Put plainly: cell-based or functional assay.
Regarding B1, the “TDCC EC50 (nM), HEK293-hGPRC5D” value is 0.074 nM.
Still for that read-out and setting: the same measure for B2: 0.045 nM; for B3: 0.278 nM.
Take B4: the “TDCC EC50 (nM), HEK293-hGPRC5D” value worked out at 0.446 nM.
